Measurements reported in patent US20200165308A1 (published 2020).

Biological target: Netrin-1 (NET1) from Mus musculus lacking the C-terminal domain (NP_032770, aa: 24-457) (Mus musculus, UniProt O09118 24-457)
Test: solid-phase binding assay

B1: full-length ectodomain of NEO1 (AAH54540, aa: 41-1107) (receptor)
chain: GAAATKSGSPPQSAGASVRTFTPFYFLVEPVDTLSVRGSSVILNCSAYSEPSPNIEWKKDGTFLNLESDDRRQLLPDGSLFISNVVHSKHNKPDEGFYQCVATVDNLGTIVSRTAKLTVAGLPRFTSQPEPSSVYVGNSAILNCEVNADLVPFVRWEQNRQPLLLDDRIVKLPSGTLVISNATEGDGGLYRCIVESGGPPKFSDEAELKVLQDPEEIVDLVFLMRPSSMMKVTGQSAVLPCVVSGLPAPVVRWMKNEEVLDTESSGRLVLLAGGCLEISDVTEDDAGTYFCIADNGNKTVEAQAELTVQVPPGFLKQPANIYAHESMDIVFECEVTGKPTPTVKWVKNGDVVIPSDYFKIVKEHNLQVLGLVKSDEGFYQCIAENDVGNAQAGAQLIILEHDVAIPTLPPTSLTSATTDHLAPATTGPLPSAPRDVVASLVSTRFIKLTWRTPASDPHGDNLTYSVFYTKEGVARERVENTSQPGEMQVTIQNLMPATVYIFKVMAQNKHGSGESSAPLRVETQPEVQLPGPAPNIRAYATSPTSITVTWETPLSGNGEIQNYKLYYMEKGTDKEQDIDVSSHSYTINGLKKYTEYSFRVVAYNKHGPGVSTQDVAVRTLSDVPSAAPQNLSLEVRNSKSIVIHWQPPSSTTQNGQITGYKIRYRKASRKSDVTETLVTGTQLSQLIEGLDRGTEYNFRVAALTVNGTGPATDWLSAETFESDLDETRVPEVPSSLHVRPLVTSIVVSWTPPENQNIVVRGYAIGYGIGSPHAQTIKVDYKQRYYTIENLDPSSHYVITLKAFNNVGEGIPLYESAVTRPHTVPDPTPMMPPVGVQASILSHDTIRITWADNSLPKHQKITDSRYYTVRWKTNIPANTKYKNANATTLSYLVTGLKPNTLYEFSVMVTKGRRSSTWSMTAHGATFELVPTSPPKDVTVVSKEGKPRTIIVNWQPPSEANGKITGYIIYYSTDVNAEIHDWVIEPVVGNRLTHQIQELTLDTPYYFKIQARNSKGMGPMSEAVQFRTPKALGSAGKGSRLPDLGSDYKPPMSGSNSPHGSPTSPLDSN
How did the Kd turn out when B1 was run?
Its Kd is 7.58 nM.
